# Measured values published in PMC11098746 (2024).
# B1: ADP237 (protein)
# chain: TKKKVSVSEINFDSAVDDVQWCGNNHMTVLVKTVKGRLYRSSDGGKIWTNIAGNLADKENNKADPSSNHMNEMTTVDLIMVNSVNKNIVLIIGNQKNHYISEDSGETFRLLNYQNKINFWQFHSTKTHWALVSSWTEACYSNDDNSGECMQTLSLTKDLGRTFQLIDIYVVQFNWGDKESHLEDTIYYTRHKNRNGHQQRFSGWSKDVDFVATHNFGKSVDVLVKQGNKFLISNGYIFVAKLNDVIKQTVNMMVSTDGGKTFNKANLPENIHEKSYTVLDTSEGSIMLHVNHGTSSEKINTGNVYISDASGLNYALSLPNNIRTSSGECEFDRVLSLDGVYIANFLDVNNEIKDEDLRFQNFKSAIEEDIAPFETNTEKRKKQYNKGKNEDAVRTVISFNKGGEWSYLKAPKVDSRGNKYECGDNCYLHLHGITNYHQYAPFYSIENAVGIIMGTGNVGSHLRYESDEVNTFLSRDGGVTWIEAHKGPYIYEYGDYGGLIVMADDLRKTNQIVFSWNEGQSWFDFELGQFSIDVDNIVAEPNSASVEFLVYGTRNDVGVLYHLDFNALGQPLCKGLWAADSVSSDYETWSPTSGNFNDKCILGRKITYTRRKQTSECFNGKDLKRTVDKKPCECTPEDYECETGFTRKIGSYECKPNDPTLTIEGCTSSSYFYANAYRKVPGDICVNGWVPEKVPVPCPSYAPFNKAAK
# modifications: bait human Fc-tagged dimer; N-glycosylation sequons mutated in Plasmodium baits
# Assays:
# Test in all cases: AVEXIS screen signal:noise (double-corrected)
# ADP386 = target: ADP386
# ADP264 = target: T1, ADP264
# T1 chain: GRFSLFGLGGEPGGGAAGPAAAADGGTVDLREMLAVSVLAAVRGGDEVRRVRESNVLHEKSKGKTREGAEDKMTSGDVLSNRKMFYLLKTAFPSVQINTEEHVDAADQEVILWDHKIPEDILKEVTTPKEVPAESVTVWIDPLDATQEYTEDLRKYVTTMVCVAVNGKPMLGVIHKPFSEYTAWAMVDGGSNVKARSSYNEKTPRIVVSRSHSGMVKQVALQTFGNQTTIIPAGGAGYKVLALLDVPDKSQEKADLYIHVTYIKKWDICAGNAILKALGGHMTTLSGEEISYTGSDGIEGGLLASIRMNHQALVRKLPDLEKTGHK
# ADP375 = target: T2, ADP375
# T2 chain: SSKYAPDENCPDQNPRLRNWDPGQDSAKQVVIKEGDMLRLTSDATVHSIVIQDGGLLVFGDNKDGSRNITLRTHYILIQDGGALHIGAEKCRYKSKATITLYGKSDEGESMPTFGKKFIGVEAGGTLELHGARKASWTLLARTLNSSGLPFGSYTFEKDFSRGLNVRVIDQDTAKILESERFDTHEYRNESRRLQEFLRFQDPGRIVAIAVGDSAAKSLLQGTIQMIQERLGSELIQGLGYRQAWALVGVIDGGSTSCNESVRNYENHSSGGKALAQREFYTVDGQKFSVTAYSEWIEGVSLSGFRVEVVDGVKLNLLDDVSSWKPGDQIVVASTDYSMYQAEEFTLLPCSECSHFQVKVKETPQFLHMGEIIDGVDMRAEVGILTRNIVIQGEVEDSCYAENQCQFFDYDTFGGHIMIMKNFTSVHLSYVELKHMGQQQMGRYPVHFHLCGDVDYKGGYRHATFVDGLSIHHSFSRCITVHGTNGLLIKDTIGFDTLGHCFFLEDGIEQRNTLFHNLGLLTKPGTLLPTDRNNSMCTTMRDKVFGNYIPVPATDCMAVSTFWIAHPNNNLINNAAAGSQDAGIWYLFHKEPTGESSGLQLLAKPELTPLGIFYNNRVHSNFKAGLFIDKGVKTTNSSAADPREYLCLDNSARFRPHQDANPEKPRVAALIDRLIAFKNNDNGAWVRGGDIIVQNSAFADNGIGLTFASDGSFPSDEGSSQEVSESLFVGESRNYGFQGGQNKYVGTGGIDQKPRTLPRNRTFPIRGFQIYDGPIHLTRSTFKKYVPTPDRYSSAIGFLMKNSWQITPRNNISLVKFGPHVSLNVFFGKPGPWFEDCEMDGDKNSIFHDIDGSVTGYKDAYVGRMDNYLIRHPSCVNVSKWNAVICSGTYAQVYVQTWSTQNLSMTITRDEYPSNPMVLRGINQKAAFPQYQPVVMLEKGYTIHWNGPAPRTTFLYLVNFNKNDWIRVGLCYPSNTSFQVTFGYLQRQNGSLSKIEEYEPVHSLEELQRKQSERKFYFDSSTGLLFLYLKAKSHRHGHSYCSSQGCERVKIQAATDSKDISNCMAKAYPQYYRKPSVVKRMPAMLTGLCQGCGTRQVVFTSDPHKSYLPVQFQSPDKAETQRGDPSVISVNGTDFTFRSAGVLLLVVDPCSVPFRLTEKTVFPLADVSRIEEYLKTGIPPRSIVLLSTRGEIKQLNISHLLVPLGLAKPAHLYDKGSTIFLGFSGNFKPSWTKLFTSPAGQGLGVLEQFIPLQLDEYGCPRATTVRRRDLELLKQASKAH
# ADP292 = target: T3, ADP292
# T3 chain: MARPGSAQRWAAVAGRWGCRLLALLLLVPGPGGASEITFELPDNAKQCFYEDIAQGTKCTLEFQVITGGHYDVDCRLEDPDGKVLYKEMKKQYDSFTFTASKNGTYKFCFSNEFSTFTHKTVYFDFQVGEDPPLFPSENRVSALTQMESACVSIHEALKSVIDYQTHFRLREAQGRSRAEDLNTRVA
# ADP293 = target: T4, ADP293
# T4 chain: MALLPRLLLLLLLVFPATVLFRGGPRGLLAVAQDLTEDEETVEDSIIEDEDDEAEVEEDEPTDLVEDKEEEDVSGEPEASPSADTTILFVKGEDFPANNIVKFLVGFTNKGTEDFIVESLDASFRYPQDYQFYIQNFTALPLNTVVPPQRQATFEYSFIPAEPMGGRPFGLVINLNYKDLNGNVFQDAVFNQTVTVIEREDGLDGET
binder,measurement,setting,value
B1,binding score,ADP386,19.2
same,binding score,ADP264,9.43
same,binding score,ADP375,24.4
same,binding score,ADP292,5.28
same,binding score,ADP293,11.1
